Measurements taken from patent publication EP4442276A1 (INSTITUT PASTEUR, dated 2024).

Tests used:
Assay in all cases: ELISA on coated recombinant spike trimer
[1] = target: T1, Trimeric OC43-CoV spike ectodomain (tri-S) (OC43-CoV, UniProt P36334 14-1297)
T1 construct: extracellular domain
T1 sequence: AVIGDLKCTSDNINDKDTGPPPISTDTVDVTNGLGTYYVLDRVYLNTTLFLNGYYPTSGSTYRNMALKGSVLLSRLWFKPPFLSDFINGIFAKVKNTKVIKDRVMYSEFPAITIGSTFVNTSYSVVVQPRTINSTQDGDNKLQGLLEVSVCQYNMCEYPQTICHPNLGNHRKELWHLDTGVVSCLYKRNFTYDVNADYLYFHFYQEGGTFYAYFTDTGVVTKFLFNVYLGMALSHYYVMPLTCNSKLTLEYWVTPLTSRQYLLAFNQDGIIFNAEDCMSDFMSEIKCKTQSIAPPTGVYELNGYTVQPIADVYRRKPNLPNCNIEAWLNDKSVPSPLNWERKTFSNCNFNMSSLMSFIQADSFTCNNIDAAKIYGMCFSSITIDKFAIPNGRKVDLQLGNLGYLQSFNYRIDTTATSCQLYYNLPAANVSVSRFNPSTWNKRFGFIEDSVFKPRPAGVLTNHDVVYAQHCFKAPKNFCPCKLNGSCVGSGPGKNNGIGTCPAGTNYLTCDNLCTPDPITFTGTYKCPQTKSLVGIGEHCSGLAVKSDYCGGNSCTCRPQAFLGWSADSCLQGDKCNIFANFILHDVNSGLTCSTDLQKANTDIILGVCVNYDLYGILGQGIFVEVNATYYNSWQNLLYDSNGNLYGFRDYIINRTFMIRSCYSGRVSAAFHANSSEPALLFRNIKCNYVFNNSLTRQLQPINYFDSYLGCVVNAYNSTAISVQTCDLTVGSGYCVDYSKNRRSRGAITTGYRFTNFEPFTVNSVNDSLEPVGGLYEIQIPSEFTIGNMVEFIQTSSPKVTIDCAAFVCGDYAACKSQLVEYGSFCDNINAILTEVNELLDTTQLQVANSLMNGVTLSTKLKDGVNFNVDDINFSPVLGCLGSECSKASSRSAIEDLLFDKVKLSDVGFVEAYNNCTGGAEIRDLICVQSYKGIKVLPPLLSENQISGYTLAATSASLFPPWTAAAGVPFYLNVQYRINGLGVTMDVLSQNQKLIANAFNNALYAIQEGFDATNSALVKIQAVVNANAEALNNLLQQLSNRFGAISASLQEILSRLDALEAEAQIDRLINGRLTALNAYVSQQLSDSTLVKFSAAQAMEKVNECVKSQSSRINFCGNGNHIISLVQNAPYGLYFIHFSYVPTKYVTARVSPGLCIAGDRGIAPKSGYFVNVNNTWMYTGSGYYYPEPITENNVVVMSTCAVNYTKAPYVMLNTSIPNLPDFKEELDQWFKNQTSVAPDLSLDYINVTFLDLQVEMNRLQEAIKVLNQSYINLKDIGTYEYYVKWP

[2] = target: T2, Trimeric 229E-CoV spike ectodomain (tri-S) (229E-CoV, UniProt P15423 16-1115)
T2 construct: extracellular domain
T2 sequence: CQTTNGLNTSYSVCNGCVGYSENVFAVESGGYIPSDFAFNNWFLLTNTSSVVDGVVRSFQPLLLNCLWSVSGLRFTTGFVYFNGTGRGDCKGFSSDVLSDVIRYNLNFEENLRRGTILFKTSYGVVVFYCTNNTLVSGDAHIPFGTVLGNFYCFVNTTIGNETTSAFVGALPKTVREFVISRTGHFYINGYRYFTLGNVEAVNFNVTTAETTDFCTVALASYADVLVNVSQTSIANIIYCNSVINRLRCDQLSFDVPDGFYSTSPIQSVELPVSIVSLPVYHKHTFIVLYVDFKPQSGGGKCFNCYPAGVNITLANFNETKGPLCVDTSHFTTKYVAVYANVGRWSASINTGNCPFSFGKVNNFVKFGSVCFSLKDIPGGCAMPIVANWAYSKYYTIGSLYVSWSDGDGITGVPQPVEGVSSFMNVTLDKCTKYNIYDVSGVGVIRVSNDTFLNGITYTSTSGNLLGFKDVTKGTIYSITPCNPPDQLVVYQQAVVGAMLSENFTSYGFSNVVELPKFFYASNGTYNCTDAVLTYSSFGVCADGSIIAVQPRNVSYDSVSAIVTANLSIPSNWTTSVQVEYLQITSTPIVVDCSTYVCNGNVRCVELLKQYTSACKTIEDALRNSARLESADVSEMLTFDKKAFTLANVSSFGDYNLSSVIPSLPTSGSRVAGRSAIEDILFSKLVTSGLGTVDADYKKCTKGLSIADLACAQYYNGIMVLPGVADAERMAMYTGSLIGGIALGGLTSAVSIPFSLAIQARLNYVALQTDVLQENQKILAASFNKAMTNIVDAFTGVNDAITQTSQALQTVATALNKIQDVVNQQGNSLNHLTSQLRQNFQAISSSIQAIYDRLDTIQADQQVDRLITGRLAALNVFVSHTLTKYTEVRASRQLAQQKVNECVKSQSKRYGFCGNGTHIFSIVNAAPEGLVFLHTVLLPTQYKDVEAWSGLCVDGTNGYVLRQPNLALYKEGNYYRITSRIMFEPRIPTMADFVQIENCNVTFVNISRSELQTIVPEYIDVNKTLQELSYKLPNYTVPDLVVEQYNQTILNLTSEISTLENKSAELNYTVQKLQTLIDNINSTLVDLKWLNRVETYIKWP

[3] = target: T3, Trimeric HKU1-CoV spike ectodomain (tri-S) (HKU1-CoV, UniProt Q5MQD0 13-1300)
T3 construct: extracellular domain
T3 sequence: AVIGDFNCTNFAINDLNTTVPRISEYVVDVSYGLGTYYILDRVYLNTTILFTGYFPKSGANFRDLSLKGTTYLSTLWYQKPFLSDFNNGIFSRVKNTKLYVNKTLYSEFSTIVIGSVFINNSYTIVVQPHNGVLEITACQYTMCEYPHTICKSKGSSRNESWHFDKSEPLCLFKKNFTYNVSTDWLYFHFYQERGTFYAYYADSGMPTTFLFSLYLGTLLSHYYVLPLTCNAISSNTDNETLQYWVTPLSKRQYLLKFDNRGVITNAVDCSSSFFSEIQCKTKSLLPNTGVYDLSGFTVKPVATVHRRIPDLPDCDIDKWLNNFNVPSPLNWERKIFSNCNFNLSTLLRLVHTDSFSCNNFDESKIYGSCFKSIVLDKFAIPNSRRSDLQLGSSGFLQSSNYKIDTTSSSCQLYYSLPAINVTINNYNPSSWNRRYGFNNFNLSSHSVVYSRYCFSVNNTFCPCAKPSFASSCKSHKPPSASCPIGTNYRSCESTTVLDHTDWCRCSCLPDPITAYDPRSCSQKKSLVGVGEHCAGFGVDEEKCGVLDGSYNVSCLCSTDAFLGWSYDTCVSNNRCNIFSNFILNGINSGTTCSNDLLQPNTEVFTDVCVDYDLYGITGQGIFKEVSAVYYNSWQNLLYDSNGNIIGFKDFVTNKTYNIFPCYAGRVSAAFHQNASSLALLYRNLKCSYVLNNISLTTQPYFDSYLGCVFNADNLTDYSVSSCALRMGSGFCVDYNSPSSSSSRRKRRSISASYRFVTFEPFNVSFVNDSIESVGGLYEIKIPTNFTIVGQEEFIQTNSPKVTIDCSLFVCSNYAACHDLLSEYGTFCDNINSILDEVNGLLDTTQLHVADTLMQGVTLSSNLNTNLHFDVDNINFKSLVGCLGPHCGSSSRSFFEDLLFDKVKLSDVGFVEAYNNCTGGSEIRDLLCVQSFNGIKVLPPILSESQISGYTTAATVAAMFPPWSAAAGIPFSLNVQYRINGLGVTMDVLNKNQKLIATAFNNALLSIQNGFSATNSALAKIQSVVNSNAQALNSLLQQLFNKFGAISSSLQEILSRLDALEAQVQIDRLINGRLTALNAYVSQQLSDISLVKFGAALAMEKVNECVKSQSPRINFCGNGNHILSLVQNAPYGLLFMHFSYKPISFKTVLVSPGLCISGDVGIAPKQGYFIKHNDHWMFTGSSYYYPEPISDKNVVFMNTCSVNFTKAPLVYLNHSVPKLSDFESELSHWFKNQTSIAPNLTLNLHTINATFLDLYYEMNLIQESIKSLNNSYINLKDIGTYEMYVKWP

[4] = target: T4, Trimeric MERS-CoV spike ectodomain (tri-S) (MERS-CoV, UniProt K9N5Q8 18-1296)
T4 construct: extracellular domain
T4 sequence: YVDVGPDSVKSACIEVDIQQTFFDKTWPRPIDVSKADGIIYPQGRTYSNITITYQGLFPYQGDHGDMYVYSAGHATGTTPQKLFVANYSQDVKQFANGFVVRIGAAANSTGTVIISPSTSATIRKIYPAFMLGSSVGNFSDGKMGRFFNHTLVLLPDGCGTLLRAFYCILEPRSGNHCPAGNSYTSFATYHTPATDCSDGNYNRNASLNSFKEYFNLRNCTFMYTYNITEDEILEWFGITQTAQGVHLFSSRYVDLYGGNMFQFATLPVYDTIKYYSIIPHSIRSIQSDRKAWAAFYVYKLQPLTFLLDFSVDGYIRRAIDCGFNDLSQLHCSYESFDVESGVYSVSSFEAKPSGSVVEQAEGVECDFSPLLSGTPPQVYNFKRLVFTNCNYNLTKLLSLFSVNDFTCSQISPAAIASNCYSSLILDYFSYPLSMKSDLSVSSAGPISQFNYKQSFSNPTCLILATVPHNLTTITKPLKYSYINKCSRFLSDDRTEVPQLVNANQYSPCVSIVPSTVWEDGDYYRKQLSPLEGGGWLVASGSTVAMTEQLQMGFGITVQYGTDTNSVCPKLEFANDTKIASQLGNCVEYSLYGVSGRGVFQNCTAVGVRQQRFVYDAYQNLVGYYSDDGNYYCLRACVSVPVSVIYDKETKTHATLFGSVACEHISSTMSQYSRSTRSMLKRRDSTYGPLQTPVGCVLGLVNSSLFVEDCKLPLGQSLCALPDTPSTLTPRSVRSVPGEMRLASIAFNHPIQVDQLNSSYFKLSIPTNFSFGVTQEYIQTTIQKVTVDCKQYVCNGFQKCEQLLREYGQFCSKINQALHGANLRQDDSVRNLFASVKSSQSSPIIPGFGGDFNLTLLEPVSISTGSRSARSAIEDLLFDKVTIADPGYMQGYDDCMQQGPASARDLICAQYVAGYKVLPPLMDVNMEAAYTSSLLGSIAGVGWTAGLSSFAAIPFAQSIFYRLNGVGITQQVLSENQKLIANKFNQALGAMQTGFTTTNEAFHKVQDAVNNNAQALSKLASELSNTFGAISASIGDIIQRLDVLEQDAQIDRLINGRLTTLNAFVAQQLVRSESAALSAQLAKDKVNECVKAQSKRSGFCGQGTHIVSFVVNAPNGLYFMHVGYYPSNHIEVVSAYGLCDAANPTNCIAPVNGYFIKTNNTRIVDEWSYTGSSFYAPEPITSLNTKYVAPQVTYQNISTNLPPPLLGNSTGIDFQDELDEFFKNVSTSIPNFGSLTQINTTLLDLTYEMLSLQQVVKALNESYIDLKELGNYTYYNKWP

Measured: binding result

B1: Cv2.3132 IgG antibody (antibody, V domains shown)
VH: EVQLVESGGGLVKPGGSLRLSCAASGFTFSDYYMSWIRQAPGKGLEWVSYISSSGSVQYYADSVKGRFTISRDNAKNSLYLQMNSLRAEDTAVYYCARYYYDSSGYWKRLDYWGQGTLVTVSS
VL: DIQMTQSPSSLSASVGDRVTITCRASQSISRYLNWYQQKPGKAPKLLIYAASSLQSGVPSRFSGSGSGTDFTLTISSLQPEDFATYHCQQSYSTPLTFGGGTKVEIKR
notes: also called anti-HR2 antibody Cv2.3132
no binding: [1] | [2] | [3] | [4]
